Changes are numbered by the printed parent chain. Names may count otherwise.
B1: gorilla APOBEC3C (enzyme)
chain: MNPQIRNPMKAMYPGTFYFQFKNLWEANDRNETWLCFTVEGIKRRSVVSWKTGVFRNQVDSETHCHAERCFLSWFCDDILSPNTNYQVTWYTSWSPCPECAGEVAEFLARHSNVKLTIFTARLYYFQYPCYQVGLRSLSQEGVAVEIMDYEDFKYCWENFVYNDNEPFKPWKGLKTNFRLLKRRLRESLQ
B2: gorilla APOBEC3C S188I (enzyme)
chain: B1 chain with S188I
B3: human APOBEC3C S188I (enzyme)
chain: B1 chain with N85K, E99D, K115N, V133E, S188I
B4: human APOBEC3C S188I/N115K (enzyme)
chain: B1 chain with N85K, E99D, V133E, S188I
B5: human APOBEC3C N115K (enzyme)
chain: B1 chain with N85K, E99D, V133E
B6: gorilla APOBEC3C K115N (enzyme)
chain: B1 chain with K115N

Columns and labels:
[1] = target: chimpanzee APOBEC3C S188I (chimpanzee); assay: cross-linking
[2] = target: chimpanzee APOBEC3C (chimpanzee); assay: cross-linking
[3] = target: chimpanzee APOBEC3C (chimpanzee); assay: SEC
[4] = target: the molecule itself; assay: cross-linking
[5] = target: the molecule itself; assay: SEC

| Molecule | stoichiometry N [4] | other results |
| --- | --- | --- |
| chimpanzee APOBEC3C S188I (enzyme) |  | stoichiometry N [1]: 2 |
| chimpanzee APOBEC3C (enzyme) |  | stoichiometry N [2]: 2; stoichiometry N [3]: 2 |
| B1 | 2 |  |
| B2 | 2 |  |
| B3 | 2 |  |
| B4 | 2 |  |
| B5 |  | stoichiometry N [5]: 2 |
| B6 | 2 |  |
